± gives the uncertainty stated by the source.
B1: Tudor domain-containing protein 3, residues 554 to 611; numbered along this chain, Q9H7E2 (parent)
chain: KMWKPGDECFALYWEDNKFYRAEVEALHSSGMTAVVKFIDYGNYEEVLLSNIKPIQTE

Variants of: B1
Experiment: abundance fitness (aPCA) (normalised: wild type 0, dead -1); higher = more abundant; growth selection in yeast, the domain comes from the species named
Conditions: Homo sapiens
Work on K18P yielded an abundance fitness of -0.949 ± 0.16. K18Q showed an abundance fitness of -0.144 ± 0.086. K18R gave an abundance fitness of -0.095 ± 0.056. In the case of K18S, the abundance fitness is reported as -0.254 ± 0.067. For K18T, the abundance fitness was -0.087 ± 0.087. K18V showed an abundance fitness of -0.255 ± 0.069. K18W gave an abundance fitness of -0.736 ± 0.11. Variant F19A has an abundance fitness of -0.831 ± 0.087. In the case of F19C, the abundance fitness is reported as -1.02 ± 0.14. For F19D, the abundance fitness was -0.881 ± 0.15. For F19E, the abundance fitness was -0.706 ± 0.099. F19G gave an abundance fitness of -0.925 ± 0.077. Work on F19H yielded an abundance fitness of -0.457 ± 0.17. F19I showed an abundance fitness of -0.649 ± 0.27. For F19K, the abundance fitness was -0.85 ± 0.16. Variant F19L has an abundance fitness of -0.472 ± 0.08. In the case of F19M, the abundance fitness is reported as -0.386 ± 0.13. Variant F19P has an abundance fitness of -0.81 ± 0.13. In the case of F19Q, the abundance fitness is reported as -0.599 ± 0.12. F19S showed an abundance fitness of -0.703 ± 0.086. For F19T, the abundance fitness was -0.747 ± 0.12. F19V showed an abundance fitness of -0.756 ± 0.082. F19W gave an abundance fitness of -0.008 ± 0.081. F19Y gave an abundance fitness of -0.123 ± 0.14. For Y20A, the abundance fitness was -0.228 ± 0.068. For Y20C, the abundance fitness was -0.321 ± 0.12. In the case of Y20D, the abundance fitness is reported as -1.01 ± 0.17. Y20E gave an abundance fitness of -0.516 ± 0.09. In the case of Y20F, the abundance fitness is reported as -0.807 ± 0.17. Y20G gave an abundance fitness of -0.732 ± 0.072. Work on Y20H yielded an abundance fitness of 0.081 ± 0.12. Variant Y20I has an abundance fitness of -0.347 ± 0.098. Work on Y20K yielded an abundance fitness of 0.072 ± 0.091. Y20L showed an abundance fitness of -0.171 ± 0.059. For Y20M, the abundance fitness was -0.297 ± 0.097. Y20N gave an abundance fitness of -0.68 ± 0.18. Variant Y20P has an abundance fitness of -0.918 ± 0.14. With Y20S the abundance fitness was -0.59 ± 0.083. Y20T showed an abundance fitness of -0.871 ± 0.12. For Y20W, the abundance fitness was -0.305 ± 0.073. With R21A the abundance fitness was -0.289 ± 0.067. Variant R21C has an abundance fitness of -0.826 ± 0.11. Work on R21D yielded an abundance fitness of -0.582 ± 0.14. R21E gave an abundance fitness of -0.301 ± 0.099. R21G showed an abundance fitness of -0.978 ± 0.098. For R21H, the abundance fitness was -0.143 ± 0.089. For R21I, the abundance fitness was -0.434 ± 0.13. For R21L, the abundance fitness was -0.177 ± 0.058. In the case of R21M, the abundance fitness is reported as -0.506 ± 0.096. R21N gave an abundance fitness of -0.678 ± 0.15. Variant R21P has an abundance fitness of -0.206 ± 0.077. R21Q gave an abundance fitness of -0.13 ± 0.1. Work on R21S yielded an abundance fitness of -0.622 ± 0.069. In the case of R21T, the abundance fitness is reported as -0.542 ± 0.094. R21V gave an abundance fitness of -0.508 ± 0.078. R21W showed an abundance fitness of -0.766 ± 0.093. R21Y showed an abundance fitness of -0.662 ± 0.11. Variant A22C has an abundance fitness of -0.488 ± 0.12. Variant A22D has an abundance fitness of -0.93 ± 0.13. A22E gave an abundance fitness of -1.04 ± 0.13. Variant A22F has an abundance fitness of -0.977 ± 0.25. Variant A22G has an abundance fitness of -0.351 ± 0.06. In the case of A22H, the abundance fitness is reported as -0.936 ± 0.21. In the case of A22I, the abundance fitness is reported as -0.923 ± 0.36. A22K gave an abundance fitness of -1.03 ± 0.14. With A22L the abundance fitness was -0.857 ± 0.093. A22M showed an abundance fitness of -0.908 ± 0.16. For A22N, the abundance fitness was -0.986 ± 0.3. For A22P, the abundance fitness was -0.976 ± 0.14. Work on A22Q yielded an abundance fitness of -0.955 ± 0.15. Variant A22R has an abundance fitness of -0.756 ± 0.076. For A22S, the abundance fitness was -0.637 ± 0.087. In the case of A22T, the abundance fitness is reported as -0.865 ± 0.14. With A22V the abundance fitness was -0.845 ± 0.069. In the case of A22W, the abundance fitness is reported as -0.95 ± 0.12. Work on A22Y yielded an abundance fitness of -0.844 ± 0.27. E23A gave an abundance fitness of -0.257 ± 0.071. Work on E23C yielded an abundance fitness of -0.034 ± 0.079. With E23F the abundance fitness was -0.1 ± 0.11. Variant E23G has an abundance fitness of -0.596 ± 0.075. Work on E23H yielded an abundance fitness of 0.071 ± 0.088. E23I gave an abundance fitness of 0.143 ± 0.1. In the case of E23L, the abundance fitness is reported as -0.225 ± 0.062. Variant E23M has an abundance fitness of -0.005 ± 0.1. E23N showed an abundance fitness of 0.059 ± 0.097. E23P gave an abundance fitness of -0.838 ± 0.11. E23Q showed an abundance fitness of -0.103 ± 0.11. In the case of E23R, the abundance fitness is reported as 0.032 ± 0.057. For E23S, the abundance fitness was 0.013 ± 0.059. E23T showed an abundance fitness of -0.004 ± 0.07. Variant E23W has an abundance fitness of -0.176 ± 0.08. In the case of V24A, the abundance fitness is reported as -0.939 ± 0.13. V24C gave an abundance fitness of -0.949 ± 0.13. Variant V24D has an abundance fitness of -1.03 ± 0.28. Variant V24E has an abundance fitness of -1.04 ± 0.19. Work on V24F yielded an abundance fitness of -0.22 ± 0.096. V24G showed an abundance fitness of -0.994 ± 0.094. Variant V24H has an abundance fitness of -0.847 ± 0.18. For V24I, the abundance fitness was -0.027 ± 0.13. In the case of V24K, the abundance fitness is reported as -0.849 ± 0.17. V24L gave an abundance fitness of -0.215 ± 0.059. For V24M, the abundance fitness was -0.726 ± 0.1. V24N showed an abundance fitness of -0.825 ± 0.15. V24P showed an abundance fitness of -0.906 ± 0.11. Variant V24Q has an abundance fitness of -0.986 ± 0.12. With V24R the abundance fitness was -0.773 ± 0.061. V24S showed an abundance fitness of -0.751 ± 0.075. Work on V24T yielded an abundance fitness of -0.863 ± 0.11. Work on V24W yielded an abundance fitness of -0.811 ± 0.093. V24Y gave an abundance fitness of -0.814 ± 0.15. With E25A the abundance fitness was 0.062 ± 0.079. For E25C, the abundance fitness was -0.019 ± 0.097. Work on E25D yielded an abundance fitness of 0.027 ± 0.14. In the case of E25F, the abundance fitness is reported as -0.041 ± 0.098. In the case of E25G, the abundance fitness is reported as -0.315 ± 0.063. For E25H, the abundance fitness was -0.039 ± 0.1. E25I gave an abundance fitness of 0.011 ± 0.11. In the case of E25K, the abundance fitness is reported as 0.051 ± 0.1. In the case of E25L, the abundance fitness is reported as -0.038 ± 0.06. Work on E25M yielded an abundance fitness of -0.025 ± 0.078. For E25N, the abundance fitness was -0.111 ± 0.13. In the case of E25P, the abundance fitness is reported as -0.659 ± 0.11. Variant E25Q has an abundance fitness of 0.077 ± 0.075. Work on E25R yielded an abundance fitness of -0.019 ± 0.054. Variant E25S has an abundance fitness of 0.022 ± 0.06. E25V showed an abundance fitness of 0.013 ± 0.063. In the case of E25W, the abundance fitness is reported as -0.101 ± 0.074. In the case of E25Y, the abundance fitness is reported as 0.046 ± 0.12. For A26C, the abundance fitness was -0.063 ± 0.15. A26D gave an abundance fitness of -0.165 ± 0.22. In the case of A26E, the abundance fitness is reported as 0.211 ± 0.17. For A26F, the abundance fitness was 0.101 ± 0.21. With A26G the abundance fitness was -0.068 ± 0.086. Work on A26H yielded an abundance fitness of -0.031 ± 0.21. In the case of A26I, the abundance fitness is reported as -0.16 ± 0.16. Work on A26K yielded an abundance fitness of 0.158 ± 0.17. In the case of A26L, the abundance fitness is reported as -0.041 ± 0.089. For A26M, the abundance fitness was -0.065 ± 0.14. Work on A26N yielded an abundance fitness of -0.079 ± 0.16. A26P gave an abundance fitness of -0.897 ± 0.2. With A26Q the abundance fitness was -0.322 ± 0.2. A26R gave an abundance fitness of 0.049 ± 0.083. Variant A26S has an abundance fitness of 0.106 ± 0.095. A26T showed an abundance fitness of 0.109 ± 0.17. Work on A26V yielded an abundance fitness of -0.128 ± 0.11. With A26W the abundance fitness was -0.195 ± 0.12. With A26Y the abundance fitness was -0.062 ± 0.21. For L27A, the abundance fitness was -0.651 ± 0.1. With L27C the abundance fitness was -0.183 ± 0.087. In the case of L27D, the abundance fitness is reported as -0.871 ± 0.14. Work on L27E yielded an abundance fitness of -0.913 ± 0.11. In the case of L27F, the abundance fitness is reported as -0.716 ± 0.14. L27G showed an abundance fitness of -0.974 ± 0.076. For L27H, the abundance fitness was -0.675 ± 0.18. Variant L27I has an abundance fitness of -0.072 ± 0.11. Work on L27M yielded an abundance fitness of -0.181 ± 0.11. For L27N, the abundance fitness was -0.879 ± 0.18. L27P showed an abundance fitness of -0.973 ± 0.17. For L27Q, the abundance fitness was -1.13 ± 0.2. For L27R, the abundance fitness was -0.872 ± 0.078. In the case of L27S, the abundance fitness is reported as -0.749 ± 0.1. L27T gave an abundance fitness of -0.301 ± 0.12. L27V showed an abundance fitness of -0.064 ± 0.067. L27W showed an abundance fitness of -0.76 ± 0.1. For L27Y, the abundance fitness was -0.911 ± 0.18. Variant H28A has an abundance fitness of 0.024 ± 0.075. H28C showed an abundance fitness of -0.098 ± 0.077.

From the Human Domainome abundance scans (Beltran et al. 2025)
